Results as given in patent US20140294898A1 (published 2014).
Starred links: 1 amine or outer side, 2 acyl side, 3 side chain; linkers in the order of their positions; H or OH if unused. Positions of bridges follow the written chain, without caps; N, C: chain ends. Non-standard residues stand in square brackets, D forms with d. Primed or numbered codes have the meaning given here. trans‑Pro(4-(4-fluorobenzyl)) = trans-4-(4-fluorobenzyl)-L-proline, O=C([C@@H]1C[C@@H](Cc2ccc(F)cc2)CN1[*:1])[*:2]; Pro(cis-4-Ph) = O=C(O)[C@@H]1C[C@H](c2ccccc2)CN1; NMeF = CN[C@@H](Cc1ccccc1)C(=O)O; PEG12′ = C-terminal PEG12 spacer; NMeNle = CCCC[C@H](NC)C(=O)O; NMeA = CN[C@@H](C)C(=O)O; Dab = NCC[C@H](N)C(=O)O; Sar = CNCC(=O)O

Tests used:
[1] = molecular target: T1, human PD-L1 on cells (human, UniProt Q9NZQ7 19-290); experiment: cell-based or functional assay
T1 sequence (Q9NZQ7 19-290): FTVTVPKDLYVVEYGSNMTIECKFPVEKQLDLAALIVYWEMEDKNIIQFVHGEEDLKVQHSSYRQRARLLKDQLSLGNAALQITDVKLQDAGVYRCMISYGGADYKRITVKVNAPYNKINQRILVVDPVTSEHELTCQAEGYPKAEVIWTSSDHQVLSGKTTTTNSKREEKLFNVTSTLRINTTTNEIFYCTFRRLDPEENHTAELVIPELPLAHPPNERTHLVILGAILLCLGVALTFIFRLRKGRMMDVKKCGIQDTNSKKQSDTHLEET

[2] = molecular target: T2, hPDL1(19-239)-TVMV-His (human, UniProt Q9NZQ7 19-239); experiment: HTRF competition of PD-1-Ig binding to PD-L1-His
T2 construct: The text says amino acids 18-239, the construct name says 19-239; The entry includes the TVMV site and the His tag; also called PD-L1-His; PD-L1-TVMV-His
T2 sequence (Q9NZQ7 other isoform, or with tags, fused parts or gaps limits assumed): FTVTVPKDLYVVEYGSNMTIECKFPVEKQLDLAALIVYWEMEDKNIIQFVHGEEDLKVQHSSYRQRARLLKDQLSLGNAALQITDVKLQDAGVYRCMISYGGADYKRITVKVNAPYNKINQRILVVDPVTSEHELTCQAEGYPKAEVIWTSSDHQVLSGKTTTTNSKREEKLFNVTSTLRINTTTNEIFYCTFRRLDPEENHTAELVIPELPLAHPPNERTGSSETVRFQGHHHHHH

[3] = molecular target: T1, human PD-L1 on cells; experiment: cell binding assay (CBA): PE-labelled PD-1-Ig on cells over-expressing human PD-L1
[4] = molecular target: human PD-L1 on cells (human, UniProt Q9NZQ7 19-290); experiment: cell-based or functional assay; remark: listed apart in the source
Target sequence in this assay (Q9NZQ7 19-290): as the sequence (Q9NZQ7 19-290) above

[5] = molecular target: T3, hPDL1(19-239)-TVMV-His (human, UniProt Q9NZQ7 19-239); experiment: HTRF competition, PD-1-Ig (20 nM) binding to human PD-L1-His (10 nM)
T3 construct: The construct name says 19-239, the running text says amino acids 18-239; Expressed in HEK293T cells; also called PD-L1-His; PD-L1-TVMV-His
T3 sequence (Q9NZQ7 other isoform, or with tags, fused parts or gaps limits assumed): as the sequence (Q9NZQ7 other isoform, or with tags, fused parts or gaps limits assumed) above

[6] = molecular target: T4, human PD-L1 (human, UniProt Q9NZQ7 19-239, limits assumed); experiment: cell binding assay, inhibition of human PD-L1/PD-1 binding on cells (cell format not given)
T4 construct: also called Hu PD-L1; hPD-L1
T4 sequence (Q9NZQ7 19-239 limits assumed): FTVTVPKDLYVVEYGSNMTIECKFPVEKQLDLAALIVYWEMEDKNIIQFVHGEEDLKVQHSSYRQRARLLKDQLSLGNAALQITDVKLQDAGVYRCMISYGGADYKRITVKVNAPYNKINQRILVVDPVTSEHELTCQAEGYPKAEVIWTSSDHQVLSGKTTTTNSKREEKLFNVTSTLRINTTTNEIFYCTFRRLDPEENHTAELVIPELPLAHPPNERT

[7] = molecular target: T5, hPDL1(19-239)-TVMV-His (human, UniProt Q9NZQ7 19-239); experiment: HTRF competition, inhibitor titrated against PD-1-Ig binding to PD-L1-His
T5 construct: The text says amino acids 18-239, the construct name says 19-239; also called PD-L1-His; PD-L1-TVMV-His
Experimental: All binding studies were performed in an HTRF assay buffer consisting of dPBS supplemented with 0.1% (w/v) bovine serum albumin and 0.05% (v/v) Tween-20. […] PD-L1 fusion proteins from either human, cynomologous macaques, or mouse were used. HTRF detection was achieved using europium crypate-labeled anti-Ig monoclonal antibody (1 nM final) and allophycocyanin (APC) labeled anti-His monoclonal antibody (20 nM final). Antibodies were diluted in HTRF detection buffer and 5 μl was dispensed on top of binding reaction. The reaction was allowed to equilibrate for 30 minutes and signal (665 nm/620 nm ratio) was obtained using an EnVision fluorometer. […]
T5 sequence (Q9NZQ7 other isoform, or with tags, fused parts or gaps limits assumed): as the sequence (Q9NZQ7 other isoform, or with tags, fused parts or gaps limits assumed) above

B1: Example 13006 (peptide)
peptide: {CH2CO}-Y[NMeA]DPHK[Pro(cis-4-Ph)]WKW[NMeNle][NMeNle]ECG-NH2
modifications: thioether N-14
SMILES: CCCC[C@H]1C(=O)N(C)[C@@H](CCCC)C(=O)N[C@@H](CCC(=O)O)C(=O)N[C@H](C(=O)NCC(N)=O)CSCC(=O)N[C@@H](Cc2ccc(O)cc2)C(=O)N(C)[C@@H](C)C(=O)N[C@@H](CC(=O)O)C(=O)N2CCC[C@H]2C(=O)N[C@@H](Cc2c[nH]cn2)C(=O)N[C@@H](CCCCN)C(=O)N2C[C@@H](c3ccccc3)C[C@H]2C(=O)N[C@@H](Cc2c[nH]c3ccccc23)C(=O)N[C@@H](CCCCN)C(=O)N[C@@H](Cc2c[nH]c3ccccc23)C(=O)N1C
notes: X marks Nle
CMV Recall EC50; IFNγ secretion by CMV-specific T cells [1]: 27.2 nM
IC50 [2]: 4.11 nM
IC50 [3]: 1.47 nM

B2: Example 13011 (peptide)
peptide: {CH2CO}-Y[NMeA]NPHE[trans‑Pro(4-(4-fluorobenzyl))]W[Dab]W[NMeNle][NMeNle][Dab]CG-NH2
modifications: thioether N-14
SMILES: CCCC[C@H]1C(=O)N(C)[C@@H](CCCC)C(=O)N[C@@H](CCN)C(=O)N[C@H](C(=O)NCC(N)=O)CSCC(=O)N[C@@H](Cc2ccc(O)cc2)C(=O)N(C)[C@@H](C)C(=O)N[C@@H](CC(N)=O)C(=O)N2CCC[C@H]2C(=O)N[C@@H](Cc2c[nH]cn2)C(=O)N[C@@H](CCC(=O)O)C(=O)N2C[C@H](Cc3ccc(F)cc3)C[C@H]2C(=O)N[C@@H](Cc2c[nH]c3ccccc23)C(=O)N[C@@H](CCN)C(=O)N[C@@H](Cc2c[nH]c3ccccc23)C(=O)N1C
notes: X marks Dab and Nle
CMV Recall EC50; IFNγ secretion by CMV-specific T cells [1]: 38.4 nM
IC50 [2]: 9.87 nM
IC50 [3]: 2.69 nM

B3: Compound No. 2 (peptide)
peptide: {CH2CO}-F[NMeA]NPHHSWRW[NMeNle][NMeNle]LCG-NH2
modifications: thioether N-14
SMILES: CCCC[C@H]1C(=O)N(C)[C@@H](CCCC)C(=O)N[C@@H](CC(C)C)C(=O)N[C@H](C(=O)NCC(N)=O)CSCC(=O)N[C@@H](Cc2ccccc2)C(=O)N(C)[C@@H](C)C(=O)N[C@@H](CC(N)=O)C(=O)N2CCC[C@H]2C(=O)N[C@@H](Cc2c[nH]cn2)C(=O)N[C@@H](Cc2c[nH]cn2)C(=O)N[C@@H](CO)C(=O)N[C@@H](Cc2c[nH]c3ccccc23)C(=O)N[C@@H](CCCNC(=N)N)C(=O)N[C@@H](Cc2c[nH]c3ccccc23)C(=O)N1C
IFNγ secretion by CMV-specific T cells (ELISA), EC50 [4]: 400 nM

{CH2CO}-FLIVIRDRVFRCG-NH2 (thioether N-12)
IFNγ secretion by CMV-specific T cells (ELISA), EC50 [4]: > 10000 nM

{CH2CO}-F[NMeA]NPHL[Sar]WSW[NMeNle][NMeNle]RCG-{PEG12′-NH2} (thioether N-14) [Compound No. 116]
IC50 [5]: 21 nM

{CH2CO}-F[NMeA]NPHHSWRW[NMeNle][NMeNle]LCG-{PEG12′-NH2} (thioether N-14) [Compound No. 117]
IC50 [5]: 21 nM

{CH2CO}-F[NMeF][NMeNle][Sar]DV[NMeF]Y[Sar]WYLCG-{PEG12′-NH2} (thioether N-13) [Compound No. 118]
IC50 [5]: 3 nM

B4: Compound No. 2 (peptide)
peptide: {CH2CO}-F[NMeA]NPHHSWRW[NMeNle][NMeNle]LCG-NH2
modifications: thioether N-14
SMILES: CCCC[C@H]1C(=O)N(C)[C@@H](CCCC)C(=O)N[C@@H](CC(C)C)C(=O)N[C@H](C(=O)NCC(N)=O)CSCC(=O)N[C@@H](Cc2ccccc2)C(=O)N(C)[C@@H](C)C(=O)N[C@@H](CC(N)=O)C(=O)N2CCC[C@H]2C(=O)N[C@@H](Cc2c[nH]cn2)C(=O)N[C@@H](Cc2c[nH]cn2)C(=O)N[C@@H](CO)C(=O)N[C@@H](Cc2c[nH]c3ccccc23)C(=O)N[C@@H](CCCNC(=N)N)C(=O)N[C@@H](Cc2c[nH]c3ccccc23)C(=O)N1C
notes: also called Compound 2
IC50 [6]: 43 nM

B5: Compound No. 4 (peptide)
peptide: {CH2CO}-F[NMeA]NPLRSWRW[NMeNle][NMeNle]LCG-NH2
modifications: thioether N-14
SMILES: CCCC[C@H]1C(=O)N(C)[C@@H](CCCC)C(=O)N[C@@H](CC(C)C)C(=O)N[C@H](C(=O)NCC(N)=O)CSCC(=O)N[C@@H](Cc2ccccc2)C(=O)N(C)[C@@H](C)C(=O)N[C@@H](CC(N)=O)C(=O)N2CCC[C@H]2C(=O)N[C@@H](CC(C)C)C(=O)N[C@@H](CCCNC(=N)N)C(=O)N[C@@H](CO)C(=O)N[C@@H](Cc2c[nH]c3ccccc23)C(=O)N[C@@H](CCCNC(=N)N)C(=O)N[C@@H](Cc2c[nH]c3ccccc23)C(=O)N1C
notes: also called Compound 4
IC50 [6]: 15 nM

B6: Compound No. 71 (peptide)
peptide: FFXGDVFYGWYLCG
HELM: PEPTIDE1{[O=C(C[*:3])[*:2]].F.[meF].[CCCC[C@@H](C(=O)[*:2])N(C)[*:1]].[Sar].D.V.[meF].Y.[Sar].W.Y.L.C.G.[am]}$PEPTIDE1,PEPTIDE1,1:R3-14:R3$$$V2.0
SMILES: CCCC[C@H]1C(=O)N(C)CC(=O)N[C@@H](CC(=O)O)C(=O)N[C@@H](C(C)C)C(=O)N(C)[C@@H](Cc2ccccc2)C(=O)N[C@@H](Cc2ccc(O)cc2)C(=O)N(C)CC(=O)N[C@@H](Cc2c[nH]c3ccccc23)C(=O)N[C@@H](Cc2ccc(O)cc2)C(=O)N[C@@H](CC(C)C)C(=O)N[C@H](C(=O)NCC(N)=O)CSCC(=O)N[C@@H](Cc2ccccc2)C(=O)N(C)[C@@H](Cc2ccccc2)C(=O)N1C
notes: also called Compound 71
IC50 [6]: 10 nM

{CH2CO}-FLIVIRDRVFRCG-NH2 (thioether N-12, also called Compound 99)
IC50 [6]: 1400 nM

B7: Compound No. 3 (peptide)
peptide: {CH2CO}-F[NMeA]NPHRSWRW[NMeNle][NMeNle]LCG-NH2
modifications: thioether N-14
SMILES: CCCC[C@H]1C(=O)N(C)[C@@H](CCCC)C(=O)N[C@@H](CC(C)C)C(=O)N[C@H](C(=O)NCC(N)=O)CSCC(=O)N[C@@H](Cc2ccccc2)C(=O)N(C)[C@@H](C)C(=O)N[C@@H](CC(N)=O)C(=O)N2CCC[C@H]2C(=O)N[C@@H](Cc2c[nH]cn2)C(=O)N[C@@H](CCCNC(=N)N)C(=O)N[C@@H](CO)C(=O)N[C@@H](Cc2c[nH]c3ccccc23)C(=O)N[C@@H](CCCNC(=N)N)C(=O)N[C@@H](Cc2c[nH]c3ccccc23)C(=O)N1C
notes: Macrocyclic peptide; X stands for norleucine
IC50 [7]: 13 nM

B8: Compound No. 4 (peptide)
peptide: {CH2CO}-F[NMeA]NPLRSWRW[NMeNle][NMeNle]LCG-NH2
modifications: thioether N-14
SMILES: CCCC[C@H]1C(=O)N(C)[C@@H](CCCC)C(=O)N[C@@H](CC(C)C)C(=O)N[C@H](C(=O)NCC(N)=O)CSCC(=O)N[C@@H](Cc2ccccc2)C(=O)N(C)[C@@H](C)C(=O)N[C@@H](CC(N)=O)C(=O)N2CCC[C@H]2C(=O)N[C@@H](CC(C)C)C(=O)N[C@@H](CCCNC(=N)N)C(=O)N[C@@H](CO)C(=O)N[C@@H](Cc2c[nH]c3ccccc23)C(=O)N[C@@H](CCCNC(=N)N)C(=O)N[C@@H](Cc2c[nH]c3ccccc23)C(=O)N1C
notes: as for B7
IC50 [7]: 15 nM

B9: Compound No. 71 (peptide)
peptide: FFXGDVFYGWYLCG
HELM: PEPTIDE1{[O=C(C[*:3])[*:2]].F.[meF].[CCCC[C@@H](C(=O)[*:2])N(C)[*:1]].[Sar].D.V.[meF].Y.[Sar].W.Y.L.C.G.[am]}$PEPTIDE1,PEPTIDE1,1:R3-14:R3$$$V2.0
SMILES: CCCC[C@H]1C(=O)N(C)CC(=O)N[C@@H](CC(=O)O)C(=O)N[C@@H](C(C)C)C(=O)N(C)[C@@H](Cc2ccccc2)C(=O)N[C@@H](Cc2ccc(O)cc2)C(=O)N(C)CC(=O)N[C@@H](Cc2c[nH]c3ccccc23)C(=O)N[C@@H](Cc2ccc(O)cc2)C(=O)N[C@@H](CC(C)C)C(=O)N[C@H](C(=O)NCC(N)=O)CSCC(=O)N[C@@H](Cc2ccccc2)C(=O)N(C)[C@@H](Cc2ccccc2)C(=O)N1C
notes: as for B7
IC50 [7]: 7 nM
